In the supplement of paper PMC7125110:
± gives the standard error. For part of these data: Variants at the floor of the assay were thinned out.

B1: glmS ribozyme (parent)
chain: AUAAAAGCGCCAGAACUACAGAAAUGUAGUUGACGAGGAGGAGGUUUAUCGAAUUUUCGGCGGAUGCCUCCAAA

How the values were obtained:
Conditions in all cases: with glucosamine-6-phosphate
[1] = variants of: B1; experiment: self-cleavage kobs at 40 uM GlcN6P; higher = faster cleavage; RNA array
How it was run: (§1)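 A hybridised Cy3 probe tracked barcoded ribozyme variants, transcribed in situ by E. coli RNA polymerase on sequenced MiSeq chips, at 37 °C. The variants received 40 μM to 10 mM glucosamine-6-phosphate in HEPES/KCl/Mg(OAc)2 buffer. kobs came from decay fits and kcat and KM from weighted Michaelis–Menten fits.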

[2] = variants of: B1; experiment: self-cleavage kobs at 10000 uM GlcN6P; higher = faster cleavage; RNA array
How it was run: as §1

[3] = variants of: B1; experiment: kcat; higher = faster cleavage; RNA array
How it was run: as §1

[4] = variants of: B1; experiment: KM; higher = weaker cofactor use; RNA array
How it was run: as §1

[5] = variants of: B1; experiment: self-cleavage kobs at 640 uM GlcN6P; higher = faster cleavage; RNA array
How it was run: as §1

[6] = variants of: B1; experiment: self-cleavage kobs at 2500 uM GlcN6P; higher = faster cleavage; RNA array
How it was run: as §1

[7] = variants of: B1; experiment: self-cleavage kobs at 160 uM GlcN6P; higher = faster cleavage; RNA array
How it was run: as §1

Row | Variant | self-cleavage kobs at 40 uM GlcN6P [1] | self-cleavage kobs at 10000 uM GlcN6P [2] | kcat [3] | KM [4] | self-cleavage kobs at 640 uM GlcN6P [5] | self-cleavage kobs at 2500 uM GlcN6P [6] | self-cleavage kobs at 160 uM GlcN6P [7]
1 | U45G C50A | < 1e-05 s⁻¹ | – | – | – | – | – | –
2 | A36C G66A | < 1e-05 s⁻¹ | < 1e-05 s⁻¹ | – | – | – | – | –
3 | G43C C67G | – | 0.000541 ± 5.7e-05 s⁻¹ | 0.000698 ± 0.00015 s⁻¹ | 2490 ± 1200 µM | 0.000186 ± 3.6e-05 s⁻¹ | 0.000454 ± 0.0001 s⁻¹ | –
4 | A33U U47A U54C | < 1e-05 s⁻¹ | 7.82e-05 ± 1.8e-05 s⁻¹ | – | – | – | 4.24e-05 ± 2e-05 s⁻¹ | –
5 | G7U G38A A48G G60C | < 1e-05 s⁻¹ | < 1e-05 s⁻¹ | – | – | – | – | –
6 | U49G A53G | 3.67e-05 ± 1.3e-05 s⁻¹ | 0.00116 ± 0.00015 s⁻¹ | 0.00124 ± 0.00011 s⁻¹ | 1440 ± 230 µM | 0.000361 ± 6.3e-05 s⁻¹ | 0.000714 ± 0.00011 s⁻¹ | 0.000136 ± 2.5e-05 s⁻¹
7 | G9A U47C G51U G63A | < 1e-05 s⁻¹ | < 1e-05 s⁻¹ | – | – | – | < 1e-05 s⁻¹ | –
8 | G66A C67U | 0.000173 ± 2.6e-05 s⁻¹ | 0.00498 ± 0.00098 s⁻¹ | 0.00255 ± 0.00091 s⁻¹ | – | 0.00134 ± 0.0002 s⁻¹ | 0.0016 ± 0.0003 s⁻¹ | 0.000398 ± 6.5e-05 s⁻¹
9 | A15G | 0.00118 ± 2.4e-05 s⁻¹ | 0.0552 ± 0.0025 s⁻¹ | 0.0648 ± 0.0031 s⁻¹ | 2180 ± 120 µM | 0.0144 ± 0.00063 s⁻¹ | 0.0326 ± 0.0018 s⁻¹ | 0.00423 ± 0.00032 s⁻¹
10 | C16G U45C | – | 0.000243 ± 3.7e-05 s⁻¹ | 0.0003 ± 7.1e-05 s⁻¹ | – | 7.2e-05 ± 2.1e-05 s⁻¹ | 0.000367 ± 9.7e-05 s⁻¹ | –
11 | A15U U49C | < 1e-05 s⁻¹ | < 1e-05 s⁻¹ | < 1e-05 s⁻¹ | – | < 1e-05 s⁻¹ | – | –
12 | G29C G66U | – | 5.98e-05 ± 1e-05 s⁻¹ | 6.74e-05 ± 1.2e-05 s⁻¹ | – | – | 7.9e-05 ± 2e-05 s⁻¹ | –
13 | C61A C70U | – | – | 1.28e-05 ± 2.9e-06 s⁻¹ | – | – | – | –
14 | A6G G13U | < 1e-05 s⁻¹ | – | – | – | < 1e-05 s⁻¹ | – | < 1e-05 s⁻¹
15 | U49C A52U | < 1e-05 s⁻¹ | < 1e-05 s⁻¹ | – | – | < 1e-05 s⁻¹ | < 1e-05 s⁻¹ | < 1e-05 s⁻¹
16 | G7U G51A G62A C70U | – | – | 1.17e-05 ± 2.6e-06 s⁻¹ | – | – | – | –
17 | C8U U54A | < 1e-05 s⁻¹ | < 1e-05 s⁻¹ | – | – | < 1e-05 s⁻¹ | < 1e-05 s⁻¹ | < 1e-05 s⁻¹
18 | U31G G38U C61U C71U | < 1e-05 s⁻¹ | – | – | – | – | – | –
19 | G32C A53U G66U | < 1e-05 s⁻¹ | – | – | – | – | – | –
20 | A12G A33G G37U | < 1e-05 s⁻¹ | < 1e-05 s⁻¹ | – | – | – | – | –
